Four molecules from article PMC9482650, “Quantitative fragmentomics allow affinity mapping of interactomes” (Nature Communications, 2022) can be followed below.

Some targets named below: GORASP1, Q9BQQ3; GRIP2_7, Q9C0E4; GRIP2_3, Q9C0E4; TJP2_1, Q9UDY2; MAGI1_2, Q96QZ7; LIMK2, P53671; SCRIB_1, Q14160; SCRIB_3, Q14160; TJP1_2, Q07157; PARD3_3, Q8TEW0; NHERF4_2, Q86UT5.
Holding throughout (assay): holdup assay
Common to all, as to design: key: below the threshold = too weak to quantify, mostly under pKd 3.1 to 4

Another test addresses T1, SNTG1, Q9NSN8.
T1 sequence (Q9NSN8 52-150, limits assumed, looked up): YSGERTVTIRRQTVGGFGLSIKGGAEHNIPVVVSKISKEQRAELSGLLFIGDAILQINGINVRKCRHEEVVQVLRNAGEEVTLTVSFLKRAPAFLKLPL

A further test has as its target T2, PDZD7_3, Q9H5P4.
T2 sequence (Q9H5P4 857-944, limits assumed, looked up): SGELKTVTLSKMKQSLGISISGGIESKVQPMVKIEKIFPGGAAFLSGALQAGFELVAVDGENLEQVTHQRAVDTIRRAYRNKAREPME

For the next test, the target named is T3, FRMPD1, Q5SYB0.
T3 sequence (Q5SYB0 52-145, limits assumed, looked up): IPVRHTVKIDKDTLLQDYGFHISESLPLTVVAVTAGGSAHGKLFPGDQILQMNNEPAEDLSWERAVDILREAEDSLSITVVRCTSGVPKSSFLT

A further test deals with T4, PARD3B_1, Q8TEW8.
T4 sequence (Q8TEW8 196-299, limits assumed, looked up): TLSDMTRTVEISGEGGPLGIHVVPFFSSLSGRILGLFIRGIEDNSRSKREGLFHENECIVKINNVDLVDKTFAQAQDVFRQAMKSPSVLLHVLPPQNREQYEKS

For another test, the target named is T5, DFNB31_1, Q9P202.
T5 sequence (Q9P202 135-233, limits assumed, looked up): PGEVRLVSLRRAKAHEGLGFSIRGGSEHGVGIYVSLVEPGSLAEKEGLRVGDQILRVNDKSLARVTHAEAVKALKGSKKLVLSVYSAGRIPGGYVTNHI

The next test deals with T6, DFNB31_3, Q9P202.
T6 sequence (Q9P202 811-907, limits assumed, looked up): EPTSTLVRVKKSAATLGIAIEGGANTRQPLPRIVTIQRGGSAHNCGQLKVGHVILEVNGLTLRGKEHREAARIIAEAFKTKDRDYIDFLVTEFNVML

The next test has as its target T7, SNTA1, Q13424.
T7 sequence (Q13424 82-180, limits assumed, looked up): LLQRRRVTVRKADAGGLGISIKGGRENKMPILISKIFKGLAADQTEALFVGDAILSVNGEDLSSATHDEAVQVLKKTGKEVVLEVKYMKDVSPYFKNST

A further test deals with T8, HTRA3, P83110.
T8 sequence (P83110 354-453, limits assumed, looked up): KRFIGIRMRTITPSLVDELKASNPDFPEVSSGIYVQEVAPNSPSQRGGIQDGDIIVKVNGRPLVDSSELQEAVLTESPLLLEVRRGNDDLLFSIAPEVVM

For a further test, the target named is T9, CARD11, Q9BXL7.
T9 sequence (Q9BXL7 662-765, limits assumed, looked up): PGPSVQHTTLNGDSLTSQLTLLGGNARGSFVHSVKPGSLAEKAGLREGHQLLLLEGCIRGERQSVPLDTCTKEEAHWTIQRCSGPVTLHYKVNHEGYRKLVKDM

The target in another test is T10, SIPA1L2, Q9P2F8.
T10 sequence (Q9P2F8 945-1036, limits assumed, looked up): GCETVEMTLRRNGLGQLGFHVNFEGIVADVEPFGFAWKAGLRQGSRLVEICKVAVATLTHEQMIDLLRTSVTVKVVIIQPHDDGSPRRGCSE

A further test has as its target T11, TJP3_3, O95049.
T11 sequence (O95049 375-456, limits assumed, looked up): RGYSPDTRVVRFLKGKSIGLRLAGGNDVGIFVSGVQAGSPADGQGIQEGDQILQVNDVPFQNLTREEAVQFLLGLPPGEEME

For a further test, the target named is T12, APBA2_2, Q99767.
T12 sequence (Q99767 654-744, limits assumed, looked up): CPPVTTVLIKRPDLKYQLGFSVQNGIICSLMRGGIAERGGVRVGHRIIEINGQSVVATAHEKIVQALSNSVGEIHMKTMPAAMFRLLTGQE

Another test deals with T13, ARHGAP21, Q5T5U3.
T13 sequence (Q5T5U3 45-169, limits assumed, looked up): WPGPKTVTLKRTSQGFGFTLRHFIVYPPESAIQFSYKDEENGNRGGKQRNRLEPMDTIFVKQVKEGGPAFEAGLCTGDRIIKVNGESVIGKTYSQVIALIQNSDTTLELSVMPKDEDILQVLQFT

[1] abbreviates: plain residues with an end cap or a label only (N-terminal biotin on a linker: ado-ado).
Setting [2] is: modified: phospho on T at position -2 from the C-terminal residue.

GORASP1, Q9BQQ3, sequence (Q9BQQ3 1-208): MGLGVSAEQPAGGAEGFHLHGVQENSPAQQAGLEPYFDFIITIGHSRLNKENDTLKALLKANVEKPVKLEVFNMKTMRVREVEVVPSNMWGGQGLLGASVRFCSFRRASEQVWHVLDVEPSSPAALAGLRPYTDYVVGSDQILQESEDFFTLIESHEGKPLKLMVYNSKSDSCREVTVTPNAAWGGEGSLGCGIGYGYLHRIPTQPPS
NHERF4_2, Q86UT5, sequence (Q86UT5 220-308): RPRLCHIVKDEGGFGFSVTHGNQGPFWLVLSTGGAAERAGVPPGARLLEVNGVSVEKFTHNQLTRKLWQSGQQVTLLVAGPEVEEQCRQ
SCRIB_3, Q14160, sequence (Q14160 999-1103): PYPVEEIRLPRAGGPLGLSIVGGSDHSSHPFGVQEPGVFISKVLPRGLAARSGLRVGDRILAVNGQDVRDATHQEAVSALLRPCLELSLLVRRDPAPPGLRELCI
LIMK2, P53671, sequence (P53671 143-248): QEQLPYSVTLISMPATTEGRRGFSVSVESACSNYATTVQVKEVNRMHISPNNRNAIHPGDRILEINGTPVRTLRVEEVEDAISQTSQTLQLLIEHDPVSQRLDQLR
TJP1_2, Q07157, sequence (Q07157 181-274): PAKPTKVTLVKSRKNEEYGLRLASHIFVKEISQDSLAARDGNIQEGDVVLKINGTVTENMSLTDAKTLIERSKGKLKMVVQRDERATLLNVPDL
MAGI1_2, Q96QZ7, sequence (Q96QZ7 456-580): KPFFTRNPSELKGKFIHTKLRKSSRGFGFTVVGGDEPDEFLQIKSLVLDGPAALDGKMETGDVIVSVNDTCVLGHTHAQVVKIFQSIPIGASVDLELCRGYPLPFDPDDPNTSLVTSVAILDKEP
PARD3_3, Q8TEW0, sequence (Q8TEW0 582-685): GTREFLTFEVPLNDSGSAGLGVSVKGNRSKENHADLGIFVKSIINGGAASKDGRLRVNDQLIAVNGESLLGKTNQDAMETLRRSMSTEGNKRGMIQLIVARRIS
GRIP2_7, Q9C0E4, sequence (Q9C0E4 934-1023): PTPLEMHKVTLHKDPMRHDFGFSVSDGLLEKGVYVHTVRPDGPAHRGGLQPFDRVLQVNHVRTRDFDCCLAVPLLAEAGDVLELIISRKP
TJP2_1, Q9UDY2, sequence (Q9UDY2 24-128): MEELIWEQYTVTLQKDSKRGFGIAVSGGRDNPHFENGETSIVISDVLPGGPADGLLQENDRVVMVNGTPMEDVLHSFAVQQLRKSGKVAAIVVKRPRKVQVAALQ
SCRIB_1, Q14160, sequence (Q14160 718-814): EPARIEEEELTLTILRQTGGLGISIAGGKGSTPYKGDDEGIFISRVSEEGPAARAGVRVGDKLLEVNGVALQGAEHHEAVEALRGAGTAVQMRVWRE
GRIP2_3, Q9C0E4, sequence (Q9C0E4 238-339): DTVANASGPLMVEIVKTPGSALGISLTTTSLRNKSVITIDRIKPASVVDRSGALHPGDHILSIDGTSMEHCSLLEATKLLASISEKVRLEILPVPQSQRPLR

As to QLKSGRDSTV [TMEM178A, Q8NBL3], the pKd (as a rule, −log10 of the Kd, conventionally taken in molar units) with GORASP1, Q9BQQ3 (setting [1]) was “below the threshold”; with SNTG1, Q9NSN8 (setting [1]), 3.81; in the test with PDZD7_3, Q9H5P4 (setting [1]), 4.19; in the test with GRIP2_7, Q9C0E4 (setting [1]), 3.55; in the test with GRIP2_3, Q9C0E4 (setting [1]) it was 3.51; in the test with TJP2_1, Q9UDY2 (setting [1]), “below the threshold”. The pKd in the test with MAGI1_2, Q96QZ7 (setting [1]) is 3.49; with LIMK2, P53671 (setting [1]), “below the threshold”; with SCRIB_1, Q14160 (setting [1]), 3.56; in the test with FRMPD1, Q5SYB0 (setting [1]), “below the threshold”; with PARD3B_1, Q8TEW8 (setting [1]), “below the threshold”; with SCRIB_3, Q14160 (setting [1]) it was 3.48. Also, the pKd in the test with DFNB31_1, Q9P202 (setting [1]) was 3.6; in the test with TJP1_2, Q07157 (setting [1]), “below the threshold”; with DFNB31_3, Q9P202 (setting [1]), “below the threshold”; in the test with SNTA1, Q13424 (setting [1]) it was 3.88; in the test with HTRA3, P83110 (setting [1]) it was “below the threshold”; with CARD11, Q9BXL7 (setting [1]), “below the threshold”. Moreover, the pKd result is “below the threshold” with SIPA1L2, Q9P2F8 (setting [1]); 3.5 with PARD3_3, Q8TEW0 (setting [1]); 3.5 with TJP3_3, O95049 (setting [1]); “below the threshold” in the test with APBA2_2, Q99767 (setting [1]); 3.62 with NHERF4_2, Q86UT5 (setting [1]); 4 with ARHGAP21, Q5T5U3 (setting [1]).

Consider SRSRRRETAL [HPV33-E6_-2P, P06427], for which the pKd entry in the test with GORASP1, Q9BQQ3 (setting [2]) is “below the threshold”; in the test with SNTG1, Q9NSN8 (setting [2]) it was “below the threshold”; in the test with PDZD7_3, Q9H5P4 (setting [2]) it was 3.74; in the test with GRIP2_7, Q9C0E4 (setting [2]) it was “below the threshold”; with GRIP2_3, Q9C0E4 (setting [2]), “below the threshold”; with TJP2_1, Q9UDY2 (setting [2]), “below the threshold”. Also, the pKd result in the test with MAGI1_2, Q96QZ7 (setting [2]) is recorded as “below the threshold”; with LIMK2, P53671 (setting [2]), “below the threshold”; with SCRIB_1, Q14160 (setting [2]) it was “below the threshold”; in the test with FRMPD1, Q5SYB0 (setting [2]) it was “below the threshold”; in the test with PARD3B_1, Q8TEW8 (setting [2]), “below the threshold”; with SCRIB_3, Q14160 (setting [2]), “below the threshold”. For the same molecule, the pKd result with DFNB31_1, Q9P202 (setting [2]) is “below the threshold”; with TJP1_2, Q07157 (setting [2]), “below the threshold”; with DFNB31_3, Q9P202 (setting [2]), 4.02; with SNTA1, Q13424 (setting [2]) it was “below the threshold”; with HTRA3, P83110 (setting [2]), “below the threshold”; with CARD11, Q9BXL7 (setting [2]), “below the threshold”. Also, the pKd result was “below the threshold” in the test with SIPA1L2, Q9P2F8 (setting [2]); “below the threshold” with PARD3_3, Q8TEW0 (setting [2]); “below the threshold” in the test with TJP3_3, O95049 (setting [2]); “below the threshold” in the test with APBA2_2, Q99767 (setting [2]); “below the threshold” in the test with NHERF4_2, Q86UT5 (setting [2]); 4.02 in the test with ARHGAP21, Q5T5U3 (setting [2]).

For the molecule SAGADSETHC [SLCO1B1, Q9Y6L6], the pKd result is “below the threshold” in the test with GORASP1, Q9BQQ3 (setting [1]); 3.66 in the test with SNTG1, Q9NSN8 (setting [1]); “below the threshold” with PDZD7_3, Q9H5P4 (setting [1]); “below the threshold” in the test with GRIP2_7, Q9C0E4 (setting [1]); “below the threshold” in the test with GRIP2_3, Q9C0E4 (setting [1]); “below the threshold” with TJP2_1, Q9UDY2 (setting [1]). The pKd result is “below the threshold” with MAGI1_2, Q96QZ7 (setting [1]); “below the threshold” with LIMK2, P53671 (setting [1]); 3.68 with SCRIB_1, Q14160 (setting [1]); “below the threshold” with FRMPD1, Q5SYB0 (setting [1]); “below the threshold” with PARD3B_1, Q8TEW8 (setting [1]); 3.88 in the test with SCRIB_3, Q14160 (setting [1]). Further, the pKd entry with DFNB31_1, Q9P202 (setting [1]) was “below the threshold”; with TJP1_2, Q07157 (setting [1]) it was “below the threshold”; in the test with DFNB31_3, Q9P202 (setting [1]), 3.55; with SNTA1, Q13424 (setting [1]) it was “below the threshold”; with HTRA3, P83110 (setting [1]), “below the threshold”; in the test with CARD11, Q9BXL7 (setting [1]), “below the threshold”. In addition, the pKd with SIPA1L2, Q9P2F8 (setting [1]) was 3.49; in the test with PARD3_3, Q8TEW0 (setting [1]), “below the threshold”; with TJP3_3, O95049 (setting [1]) it was “below the threshold”; with APBA2_2, Q99767 (setting [1]) it was “below the threshold”; with NHERF4_2, Q86UT5 (setting [1]) it was “below the threshold”; with ARHGAP21, Q5T5U3 (setting [1]) it was 4.02.

With DYSNLRETDI [ADRA1D, P25100], the pKd entry is “below the threshold” with GORASP1, Q9BQQ3 (setting [1]); 5.55 with SNTG1, Q9NSN8 (setting [1]); 4.97 with PDZD7_3, Q9H5P4 (setting [1]); “below the threshold” with GRIP2_7, Q9C0E4 (setting [1]); “below the threshold” with GRIP2_3, Q9C0E4 (setting [1]); “below the threshold” with TJP2_1, Q9UDY2 (setting [1]). The pKd entry with MAGI1_2, Q96QZ7 (setting [1]) was “below the threshold”; with LIMK2, P53671 (setting [1]), “below the threshold”; in the test with SCRIB_1, Q14160 (setting [1]), 4.95; in the test with FRMPD1, Q5SYB0 (setting [1]), “below the threshold”; in the test with PARD3B_1, Q8TEW8 (setting [1]), “below the threshold”; with SCRIB_3, Q14160 (setting [1]), 5.27. Also, the pKd is 5.02 with DFNB31_1, Q9P202 (setting [1]); “below the threshold” with TJP1_2, Q07157 (setting [1]); 3.91 in the test with DFNB31_3, Q9P202 (setting [1]); 5.71 with SNTA1, Q13424 (setting [1]); “below the threshold” in the test with HTRA3, P83110 (setting [1]); “below the threshold” in the test with CARD11, Q9BXL7 (setting [1]). The pKd result in the test with SIPA1L2, Q9P2F8 (setting [1]) is “below the threshold”; with PARD3_3, Q8TEW0 (setting [1]) it was 3.51; in the test with TJP3_3, O95049 (setting [1]) it was “below the threshold”; with APBA2_2, Q99767 (setting [1]), “below the threshold”; with NHERF4_2, Q86UT5 (setting [1]), “below the threshold”; with ARHGAP21, Q5T5U3 (setting [1]), 3.98.
